{"source": "patent US20240141072A1", "about": "(published 2024)", "binders": {"B1": {"name": "biotinylated human DLL3 protein expressed as a human IgG1 fusion protein (Fc fusion, not shown: a dimerising Fc or GST)", "chain": "AGVFELQIHSFGPGPGPGAPRSPCSARLPCRLFFRVCLKPGLSEEAAESPCALGAALSARGPVYTEQPGAPAPDLPLPDGLLQVPFRDAWPGTFSFIIETWREELGDQIGGPAWSLLARVAGRRRLAAGGPWARDIQRAGAWELRFSYRARCEPPAVGTACTRLCRPRSAPSRCGPGLRPCAPLEDECEAPLVCRAGCSPEHGFCEQPGECRCLEGWTGPLCTVPVSTSSCLSPRGPSSATTGCLVPGPGPCDGNPCANGGSCSETPRSFECTCPRGFYGLRCEVSGVTCADGPCFNGGLCVGGADPDSAYICHCPPGFQGSNCEKRVDRCSLQPCRNGGLCLDLGHALRCRCRAGFAGPRCEHDLDDCAGRACANGGTCVEGGGAHRCSCALGFGGRDCRERADPCAARPCAHGGRCYAHFSGLVCACAPGYMGARCEFPVHPDGASALPAAPPGLRPGDPQRYL", "modifications": "biotinylated"}}, "experiment_in_all_cases": "Octet BLI; biotinylated huDLL3-IgG1 fusion on streptavidin tips; single 50 nM trispecific, conditioned medium", "key": {"[1]": {"target": "T1, anti-DLL3 trispecific protein with DLL3 binding domain 51E05", "T1 construct": "trispecific, one chain", "description": "(§1) Using the conditioned medium with known concentrations of the anti-DLL3 trispecific proteins, the relative binding affinities of the anti-DLL3 trispecific proteins toward human DLL3 protein were measured using a method where biotinylated version of human DLL3 protein were expressed as a human IgG1 fusion protein, and the binding affinity measurement was carried out in an Octet instrument with streptavidin tips."}, "[2]": {"target": "T2, anti-DLL3 trispecific protein with DLL3 binding domain 53A09", "T2 construct": "trispecific, one chain", "description": "as §1"}, "[3]": {"target": "T3, anti-DLL3 trispecific protein with DLL3 binding domain 42A06", "T3 construct": "trispecific, one chain", "T3 sequence (chain, as listed by the source)": "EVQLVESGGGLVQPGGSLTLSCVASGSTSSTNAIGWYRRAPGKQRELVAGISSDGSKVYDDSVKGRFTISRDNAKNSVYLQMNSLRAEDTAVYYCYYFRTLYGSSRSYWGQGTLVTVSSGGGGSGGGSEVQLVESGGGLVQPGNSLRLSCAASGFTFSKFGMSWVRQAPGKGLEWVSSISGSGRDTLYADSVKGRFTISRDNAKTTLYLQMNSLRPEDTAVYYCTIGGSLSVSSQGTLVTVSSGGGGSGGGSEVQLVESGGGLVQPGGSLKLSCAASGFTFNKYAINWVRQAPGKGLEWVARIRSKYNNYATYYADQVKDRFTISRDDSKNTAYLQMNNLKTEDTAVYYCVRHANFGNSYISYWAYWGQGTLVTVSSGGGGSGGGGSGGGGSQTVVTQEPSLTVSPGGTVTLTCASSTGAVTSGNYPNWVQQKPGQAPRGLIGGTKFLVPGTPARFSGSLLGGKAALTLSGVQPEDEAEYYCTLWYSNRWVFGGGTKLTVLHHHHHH", "description": "as §1"}, "[4]": {"target": "T4, anti-DLL3 trispecific protein with DLL3 binding domain 53A04", "T4 construct": "trispecific, one chain", "description": "as §1"}, "[5]": {"target": "T5, anti-DLL3 trispecific protein with DLL3 binding domain 42E05", "T5 construct": "trispecific, one chain", "T5 sequence (chain, as listed by the source)": "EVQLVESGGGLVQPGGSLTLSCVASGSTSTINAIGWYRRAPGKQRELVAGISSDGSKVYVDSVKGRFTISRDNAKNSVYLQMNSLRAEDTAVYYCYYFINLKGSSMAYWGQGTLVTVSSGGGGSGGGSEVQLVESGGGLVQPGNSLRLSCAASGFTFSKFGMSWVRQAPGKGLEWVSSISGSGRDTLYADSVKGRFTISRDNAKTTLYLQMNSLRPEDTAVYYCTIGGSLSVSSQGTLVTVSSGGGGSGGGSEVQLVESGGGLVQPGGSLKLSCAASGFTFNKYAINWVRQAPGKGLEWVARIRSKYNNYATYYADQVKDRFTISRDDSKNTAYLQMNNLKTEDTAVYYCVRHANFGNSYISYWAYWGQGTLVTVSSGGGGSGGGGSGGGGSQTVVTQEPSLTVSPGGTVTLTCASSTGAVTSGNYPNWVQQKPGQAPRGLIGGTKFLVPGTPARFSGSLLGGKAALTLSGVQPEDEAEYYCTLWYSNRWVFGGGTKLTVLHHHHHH", "description": "as §1"}, "[6]": {"target": "T6, anti-DLL3 trispecific protein with DLL3 binding domain 51B01", "T6 construct": "trispecific, one chain", "description": "as §1"}, "[7]": {"target": "T7, anti-DLL3 trispecific protein with DLL3 binding domain 42A03", "T7 construct": "trispecific, one chain", "T7 sequence (chain, as listed by the source)": "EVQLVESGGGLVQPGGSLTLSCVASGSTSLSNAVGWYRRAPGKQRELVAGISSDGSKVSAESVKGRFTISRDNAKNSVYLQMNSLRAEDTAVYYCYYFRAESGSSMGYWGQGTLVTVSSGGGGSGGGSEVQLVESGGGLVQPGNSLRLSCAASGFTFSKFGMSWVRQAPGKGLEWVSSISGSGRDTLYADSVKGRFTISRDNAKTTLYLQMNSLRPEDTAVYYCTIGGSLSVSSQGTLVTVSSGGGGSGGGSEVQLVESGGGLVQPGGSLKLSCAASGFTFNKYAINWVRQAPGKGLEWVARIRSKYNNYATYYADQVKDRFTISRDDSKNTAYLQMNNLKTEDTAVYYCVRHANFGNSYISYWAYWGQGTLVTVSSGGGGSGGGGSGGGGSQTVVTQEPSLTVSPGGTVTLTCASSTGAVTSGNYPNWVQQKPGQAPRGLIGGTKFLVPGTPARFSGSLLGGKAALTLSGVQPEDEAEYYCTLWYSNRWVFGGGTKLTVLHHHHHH", "description": "as §1"}, "[8]": {"target": "T8, anti-DLL3 trispecific protein with DLL3 binding domain 51A03", "T8 construct": "trispecific, one chain", "description": "as §1"}, "[9]": {"target": "T9, anti-DLL3 trispecific protein with DLL3 binding domain 51F02", "T9 construct": "trispecific, one chain", "T9 sequence (chain, as listed by the source)": "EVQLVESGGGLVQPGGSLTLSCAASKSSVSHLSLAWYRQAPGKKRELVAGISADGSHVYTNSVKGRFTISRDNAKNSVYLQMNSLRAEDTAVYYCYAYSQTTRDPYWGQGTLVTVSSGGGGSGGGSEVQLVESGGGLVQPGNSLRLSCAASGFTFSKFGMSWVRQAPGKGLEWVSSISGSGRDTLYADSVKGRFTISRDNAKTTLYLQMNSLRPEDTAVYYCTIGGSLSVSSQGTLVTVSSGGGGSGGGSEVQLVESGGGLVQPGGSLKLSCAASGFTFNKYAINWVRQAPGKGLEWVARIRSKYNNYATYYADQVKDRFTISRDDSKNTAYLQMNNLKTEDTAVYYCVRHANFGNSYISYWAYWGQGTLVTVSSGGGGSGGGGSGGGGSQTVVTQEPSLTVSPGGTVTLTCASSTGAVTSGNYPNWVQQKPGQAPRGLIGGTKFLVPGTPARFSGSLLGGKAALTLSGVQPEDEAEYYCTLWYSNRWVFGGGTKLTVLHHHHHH", "description": "as §1"}, "[10]": {"target": "T10, anti-DLL3 trispecific protein with DLL3 binding domain 42H05", "T10 construct": "trispecific, one chain", "T10 sequence (chain, as listed by the source)": "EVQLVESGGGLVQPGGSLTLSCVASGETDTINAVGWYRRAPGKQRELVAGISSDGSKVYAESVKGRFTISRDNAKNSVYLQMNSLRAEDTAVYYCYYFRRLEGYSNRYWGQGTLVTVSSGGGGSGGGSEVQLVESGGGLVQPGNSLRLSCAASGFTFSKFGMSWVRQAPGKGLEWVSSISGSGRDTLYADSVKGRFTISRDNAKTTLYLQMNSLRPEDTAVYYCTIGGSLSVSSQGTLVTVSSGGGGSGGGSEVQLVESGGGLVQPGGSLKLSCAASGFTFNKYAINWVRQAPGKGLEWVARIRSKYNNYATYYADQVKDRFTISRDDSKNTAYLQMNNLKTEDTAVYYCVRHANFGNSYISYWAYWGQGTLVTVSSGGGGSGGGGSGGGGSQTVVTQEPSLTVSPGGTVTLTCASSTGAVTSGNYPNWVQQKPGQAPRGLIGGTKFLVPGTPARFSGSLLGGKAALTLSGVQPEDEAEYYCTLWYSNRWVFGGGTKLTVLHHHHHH", "description": "as §1"}, "[11]": {"target": "T11, anti-DLL3 trispecific protein with DLL3 binding domain 42D05", "T11 construct": "trispecific, one chain", "description": "as §1"}, "[12]": {"target": "T12, anti-DLL3 trispecific protein with DLL3 binding domain 42E02", "T12 construct": "trispecific, one chain", "T12 sequence (chain, as listed by the source)": "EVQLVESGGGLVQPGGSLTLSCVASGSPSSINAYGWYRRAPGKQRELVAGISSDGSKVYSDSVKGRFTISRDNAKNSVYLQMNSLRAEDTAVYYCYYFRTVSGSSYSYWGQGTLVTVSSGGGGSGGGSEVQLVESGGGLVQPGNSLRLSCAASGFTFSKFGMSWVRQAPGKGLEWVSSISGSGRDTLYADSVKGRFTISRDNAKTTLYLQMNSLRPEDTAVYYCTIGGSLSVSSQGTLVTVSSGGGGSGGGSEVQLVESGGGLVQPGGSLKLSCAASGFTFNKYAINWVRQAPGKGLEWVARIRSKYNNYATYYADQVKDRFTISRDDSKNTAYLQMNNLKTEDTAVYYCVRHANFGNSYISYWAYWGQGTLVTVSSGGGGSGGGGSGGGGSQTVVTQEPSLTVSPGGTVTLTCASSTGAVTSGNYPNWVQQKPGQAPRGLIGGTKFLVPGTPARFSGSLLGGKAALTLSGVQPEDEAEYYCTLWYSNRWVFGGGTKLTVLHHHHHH", "description": "as §1"}, "[13]": {"target": "T13, anti-DLL3 trispecific protein with DLL3 binding domain 42C10", "T13 construct": "trispecific, one chain", "description": "as §1"}, "[14]": {"target": "T14, anti-DLL3 trispecific protein with DLL3 binding domain 41D03", "T14 construct": "trispecific, one chain", "T14 sequence (chain, as listed by the source)": "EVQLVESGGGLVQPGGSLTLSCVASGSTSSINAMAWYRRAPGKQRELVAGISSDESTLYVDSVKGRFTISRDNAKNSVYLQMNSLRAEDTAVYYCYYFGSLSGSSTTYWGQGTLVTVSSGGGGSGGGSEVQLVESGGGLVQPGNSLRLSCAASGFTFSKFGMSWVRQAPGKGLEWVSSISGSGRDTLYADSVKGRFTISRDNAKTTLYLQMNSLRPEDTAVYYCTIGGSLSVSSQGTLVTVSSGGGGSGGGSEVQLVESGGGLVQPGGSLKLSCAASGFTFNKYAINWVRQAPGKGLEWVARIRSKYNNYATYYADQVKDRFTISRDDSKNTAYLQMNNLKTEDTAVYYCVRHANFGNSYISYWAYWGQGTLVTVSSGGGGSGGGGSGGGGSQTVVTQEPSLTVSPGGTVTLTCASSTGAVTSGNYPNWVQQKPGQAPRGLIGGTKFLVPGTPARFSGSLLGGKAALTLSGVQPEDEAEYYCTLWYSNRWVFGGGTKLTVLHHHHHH", "description": "as §1"}, "[15]": {"target": "T15, anti-DLL3 trispecific protein with DLL3 binding domain 51B04", "T15 construct": "trispecific, one chain", "description": "as §1"}, "[16]": {"target": "T16, anti-DLL3 trispecific protein with DLL3 binding domain 52B01", "T16 construct": "trispecific, one chain; also called 52B1", "T16 sequence (chain, as listed by the source)": "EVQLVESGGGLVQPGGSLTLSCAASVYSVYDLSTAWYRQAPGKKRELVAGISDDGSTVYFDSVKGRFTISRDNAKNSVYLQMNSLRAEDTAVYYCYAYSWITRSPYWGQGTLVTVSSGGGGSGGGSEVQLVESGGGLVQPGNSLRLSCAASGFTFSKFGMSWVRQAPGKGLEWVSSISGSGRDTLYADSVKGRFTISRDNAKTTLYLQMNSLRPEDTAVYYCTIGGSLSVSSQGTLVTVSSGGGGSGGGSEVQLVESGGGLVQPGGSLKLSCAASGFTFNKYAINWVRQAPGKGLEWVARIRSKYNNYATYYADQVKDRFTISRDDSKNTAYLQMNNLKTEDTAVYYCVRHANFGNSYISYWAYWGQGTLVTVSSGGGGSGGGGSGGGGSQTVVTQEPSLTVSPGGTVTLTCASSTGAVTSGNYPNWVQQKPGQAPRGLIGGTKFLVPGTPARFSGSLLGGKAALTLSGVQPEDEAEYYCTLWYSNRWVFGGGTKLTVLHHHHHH", "description": "as §1"}, "[17]": {"target": "T17, anti-DLL3 trispecific protein with DLL3 binding domain 53B06", "T17 construct": "trispecific, one chain", "T17 sequence (chain, as listed by the source)": "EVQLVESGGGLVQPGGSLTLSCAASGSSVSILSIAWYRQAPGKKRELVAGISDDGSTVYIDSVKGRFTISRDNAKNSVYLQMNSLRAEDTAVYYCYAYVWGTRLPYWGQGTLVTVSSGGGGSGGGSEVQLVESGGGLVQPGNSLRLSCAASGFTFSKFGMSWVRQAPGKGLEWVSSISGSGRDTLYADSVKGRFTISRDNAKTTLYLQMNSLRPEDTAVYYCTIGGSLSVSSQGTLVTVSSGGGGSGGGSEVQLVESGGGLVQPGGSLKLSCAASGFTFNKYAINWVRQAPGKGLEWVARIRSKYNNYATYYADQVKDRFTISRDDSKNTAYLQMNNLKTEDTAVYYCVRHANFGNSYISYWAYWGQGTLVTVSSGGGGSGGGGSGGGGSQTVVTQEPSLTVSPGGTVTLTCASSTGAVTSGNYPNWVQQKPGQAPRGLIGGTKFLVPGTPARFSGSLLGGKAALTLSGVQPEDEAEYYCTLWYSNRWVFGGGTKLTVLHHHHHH", "description": "as §1"}}, "data": [{"binder": "B1", "values": [{"measurement": "Kd", "setting": "[1]", "value": 0.97, "unit": "nM"}, {"measurement": "Kd", "setting": "[2]", "value": 0.97, "unit": "nM"}, {"measurement": "Kd", "setting": "[3]", "value": 1, "unit": "nM"}, {"measurement": "Kd", "setting": "[4]", "value": 0.42, "unit": "nM"}, {"measurement": "Kd", "setting": "[5]", "value": 1.2, "unit": "nM"}, {"measurement": "Kd", "setting": "[6]", "value": 1.6, "unit": "nM"}, {"measurement": "Kd", "setting": "[7]", "value": 1.9, "unit": "nM"}, {"measurement": "Kd", "setting": "[8]", "value": 2.2, "unit": "nM"}, {"measurement": "Kd", "setting": "[9]", "value": 2.4, "unit": "nM"}, {"measurement": "Kd", "setting": "[10]", "value": 2.7, "unit": "nM"}, {"measurement": "Kd", "setting": "[11]", "value": 2.7, "unit": "nM"}, {"measurement": "Kd", "setting": "[12]", "value": 2.9, "unit": "nM"}, {"measurement": "Kd", "setting": "[13]", "value": 3.2, "unit": "nM"}, {"measurement": "Kd", "setting": "[14]", "value": 4.8, "unit": "nM"}, {"measurement": "Kd", "setting": "[15]", "value": 16, "unit": "nM"}, {"measurement": "Kd", "setting": "[16]", "value": 0.61, "unit": "nM"}, {"measurement": "Kd", "setting": "[17]", "value": 0.71, "unit": "nM"}]}]}
